Results: patent US20250333523A1 (Alector, published 2025)

Key:
[1] = biological target: T1, Avi/His-HuIL18BPa (recombinant human IL-18BP isoform A with Avi and poly-His tags) (human, biotinylated with BirA on the Avi tag in some assays); experiment: cell-based or functional assay
T1 chain: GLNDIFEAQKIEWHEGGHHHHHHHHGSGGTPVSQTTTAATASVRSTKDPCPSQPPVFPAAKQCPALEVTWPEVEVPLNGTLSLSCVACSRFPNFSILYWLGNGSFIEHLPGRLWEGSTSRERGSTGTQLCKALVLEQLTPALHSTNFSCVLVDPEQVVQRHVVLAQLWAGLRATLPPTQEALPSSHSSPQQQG

[2] = biological target: T2, Avi/HisMsIL18BPd (recombinant mouse IL-18BP with Avi and poly-His tags) (mouse, biotinylated with BirA on the Avi tag in some assays); experiment: cell-based or functional assay
T2 chain: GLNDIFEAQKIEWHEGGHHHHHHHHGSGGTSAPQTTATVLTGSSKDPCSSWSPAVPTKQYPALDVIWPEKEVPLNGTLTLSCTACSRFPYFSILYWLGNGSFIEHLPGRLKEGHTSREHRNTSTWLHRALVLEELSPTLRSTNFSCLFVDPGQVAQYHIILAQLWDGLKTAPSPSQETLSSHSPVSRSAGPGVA

[3] = biological target: T3, His/Avi-CynoIL18BP (recombinant cynomolgus IL-18BP with His and Avi tags) (cynomolgus monkey); experiment: blocking ELISA, competitor rhesus IL-18
T3 construct: also called cynomolgus IL-18BP-Avi-His
T3 chain: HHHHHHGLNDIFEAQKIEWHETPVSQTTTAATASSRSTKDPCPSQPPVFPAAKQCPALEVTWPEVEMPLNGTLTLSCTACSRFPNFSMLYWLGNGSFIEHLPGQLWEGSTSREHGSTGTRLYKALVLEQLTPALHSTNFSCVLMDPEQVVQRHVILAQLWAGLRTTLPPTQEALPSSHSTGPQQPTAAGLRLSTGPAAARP

[4] = biological target: T1, Avi/His-HuIL18BPa (recombinant human …); experiment: ELISA, coated IL-18BP
[5] = biological target: T3, His/Avi-CynoIL18BP (recombinant …); experiment: ELISA, coated IL-18BP
[6] = biological target: T2, Avi/HisMsIL18BPd (recombinant mouse …); experiment: ELISA, coated IL-18BP
[7] = biological target: T1, Avi/His-HuIL18BPa (recombinant human …); experiment: blocking ELISA, competitor human IL-18
[8] = biological target: T2, Avi/HisMsIL18BPd (recombinant mouse …); experiment: SPR, qualitative
[9] = biological target: T4, mouse IL-18BPd-human IgG Fc (R&D Systems, Cat. #122-BP-100) (mouse; human, UniProt Q9Z0M9 29-193); experiment: blocking ELISA, competitor mouse IL-18
T4 construct: Bought; also called mouse IL-18BPd-Fc Chimera
T4 sequence (looked up): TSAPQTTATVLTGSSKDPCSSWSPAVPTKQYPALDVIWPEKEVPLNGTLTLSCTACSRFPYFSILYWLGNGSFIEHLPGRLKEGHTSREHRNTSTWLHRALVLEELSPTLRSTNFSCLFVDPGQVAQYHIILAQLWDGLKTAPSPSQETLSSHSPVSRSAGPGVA

[10] = biological target: T3, His/Avi-CynoIL18BP (recombinant …); experiment: cell-based or functional assay

B1: anti-IL18BP antibody BP-06 (antibody, human IgG1, V domains shown)
VH: QIQLQQSGPELVKPGASVKISCKASGYTFTDYYLNWVKQTPGQGLEWIGWIYPGSGNTKYTEKFKDKASLTVDTSSNTAYMQLSSLTSDDTAVYFCARRGVAWFAYWGQGTLVTVSA
VL: DIKMTQSPSSIYASLGERVTITCKASQDINSYLSWFQQKPGKSPKTLIHRANRLVDGVPSRFSGSGSGQDYSLTISSLEYEDMGIYYCLQHDDFPPTFGAGTNLELK
EC50 of IFNγ release, human PBMC [1]: 1.23 nM | Fold change of IFNγ at 10 µg/ml vs baseline, human PBMC [1]: 10.9 fold | Fold change of IFNγ at 10 µg/ml vs baseline, mouse splenocytes [2]: 1.11 fold | blocking ELISA signal normalized to isotype control (=1) [3]: 0.378 ratio to isotype control | ELISA binding ratio (fold-change over background) [4]: 42.1 fold over background | ELISA binding ratio (fold-change over background) [5]: 44.3 fold over background | ELISA binding ratio (fold-change over background) [6]: 1.2 fold over background | blocking ELISA signal normalized to isotype control (=1) [7]: 0.174 ratio to isotype control | binding result [8]: no binding | blocking ELISA signal normalized to isotype control (=1) [9]: 0.971 ratio to isotype control | % of Max Gamma, human NK cells [10]: 75.8% | EC50 of IFNγ release, human NK cells [10]: 8.07 nM
